69 sequences from the domain aggregation screens of Martell et al. (2025) can be followed below.

A short description of this series: soluble fraction after stress (log2 fold change); higher = more stays soluble; pooled small domains, quantitative proteomics. The following applies: stress: pH 4. In a few lines:
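How much of each domain stays soluble after acid stress, expressed as a fold change, is used to gauge aggregation propensity. Pooled custom libraries of small domains underwent pH 4 stress before high-throughput quantitative proteomics. A higher log2 value means more of the domain stayed soluble.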

A value given as a limit tells only on which side of the number the result lay.

With “HMDVLKVFSHNVRRYRTQLGLSQETVAFRTGLHRTYISAVERGKRSISLDNIQKIADALEVETYLLFI”, the “soluble fraction (log2)” value was 0.22.

For the sequence “HMDVLNPGDKAVTTASWLNFRTGPGMQNKVASVLARNTTVNIIEKSNEWYKVSLANGSTGYVHGMYLSKIT”, the “soluble fraction (log2)” value was 0.105.

With “HMDVLSQYGSRGEEVGKIQTRLKSWGYFSGEVTGYYGSQTTEAVKRFQQKHGLSATGVADRKTLELIGIS”, the “soluble fraction (log2)” value is 0.22.

Regarding “HMDVLTARENEVLQLLAKGMSNKEIASVLVITEKTVKAHVSSILSKLNLSDRTQAALYAVKNGI”, the “soluble fraction (log2)” value was -0.154.

Consider “HMDVNMLVTGMLHKGEKSFVRVSFLRGKDWAEGIVPDAKIEKSQGFMEEEVARLEAYLLEQKSMIMEQA”, for which the “soluble fraction (log2)” value is -1.24.

Take “HMDVQGFVMDLDKPLDKEPIVEGFELKLEDSLTLVAAVNKDKSINSLFDELSKLGIKVKSMRNPP”: the “soluble fraction (log2)” value was -2.11.

Consider “HMDVQNLTKKNQEFINIVTHQLLQSGKSDEDIQTILAKTLPEIIEKQKQGIPARSFLGAPTAWAAQFI”, for which the “soluble fraction (log2)” value is -0.0313.

Take “HMDVRLAKVYMLPANPYLRFIEFDDGTHGKFRAKPGKFGLGSVVKVKREDGDMYTLEGNYDGKDRL”: the “soluble fraction (log2)” value was 0.152.

In the case of “HMDVSPVRLIREARGLSQVEVAKAAGLSRAAYQNIEVGKTVPRASTMVNIARALGVSMDDLLAPV”, the “soluble fraction (log2)” value came to 0.0681.

For “HMDVSVPDVTGTRLDRAQSLLEAQGLTLGKVEEFFHATEPAGIVYDQEPRPGTRVDEGTAISVSVSKGPEA”, the “soluble fraction (log2)” value turned out to be 0.0997.

With “HMDWFDELKVSTDDSGRVTAPEESEFMFQTSNEKIFAGGDMVRGSDLVVTAIWEGRQAAEGIMDYLD”, the “soluble fraction (log2)” value was -0.726.

On to “HMDWPDDETIARIYALIKSDISSQARKVMELRFSEGMPFARIAAAMGISETAVYRHLSHALTVIRQKLN”, for which the “soluble fraction (log2)” value is -1.24.

Take “HMDWREMTAWMAELLKRRTGDDVETWNARVRESGAHDEASLRAWLTEQGVTGYAQTLLVMERFGYPDFF”: the “soluble fraction (log2)” value is -1.67.

With “HMDYADISYKIFMNHIKNGQVERVELSGDPRIMGKLKDGTYFVTDNPRTENFKEFLLLNNVQVIETN”, the “soluble fraction (log2)” value is -0.772.

With “HMDYEVPEELQQKFEEFPRLKEAFYQLTPGRQHQYLYYFSQAKRSQTRYNRIDKYMNAILQGKGMK”, the “soluble fraction (log2)” value was 0.167.

For “HMDYINALTTAGITDAKVIVTAPFDVSGTAALTGIYKAYEDITGSSLNEIAKAVGVEELITTGNLA”, the “soluble fraction (log2)” value is 0.2.

“HMDYKAELDNIIRDHLDMEGPLLPVLHAVMARFSYIPKDAIPIIARKLNLSSAEVSGVISFYHDFKKEK”: the “soluble fraction (log2)” value is -0.165.

Consider “HMDYKYYIVKEPMVVKNLELPVGTRIVYFNTSLFGDSESSRPLKEKNIYQIFFPDDKPLIWGGVPVSLIER”, for which the “soluble fraction (log2)” value was -0.546.

Consider “HMDYNLTKNQKIVFNLLQNSGEPLKAYTILESLKREGLKSPLQVYRALDKLVELGIIHKIESQNSFI”, for which the “soluble fraction (log2)” value stood at 0.0373.

For “HMDYNMEEWSLTADQLKSGDTILILNLGKTATLLESTRGKKNVRVRMGNIKTIVETSSIRGNPHQ”, the “soluble fraction (log2)” value was -0.729.

Turning to “HMDYPFQYFNYSHLRILGVPAQLIKAVRKAPTLDAIEQLSGLSEKTKLWLLELATEPKLEDVLFDPGR”, the “soluble fraction (log2)” value was -0.515.

Take “HMDYRSMSGLQKAALLIMSVGEETAAKLFQLMHDDEIREISQTMANLGTVNATVIERLFVEFADAISS”: the “soluble fraction (log2)” value is -0.935.

Turning to “HMDYVKTLGETINVRVAASTDADIYKLLPGGEILNRVGYNEEWTKVMVDGSTFYVYSEYVIQTEPPA”, the “soluble fraction (log2)” value is -1.25.

On to “HMDYYSILGVDRNATGEDIKKAFKKKAMKYHPDRNPDNKESERKFKEAKEAYDTLSNPQKKSMYDQFGT”, for which the “soluble fraction (log2)” value worked out at 0.141.

On to “HMEAEDLRDWVGARGIAYTALRPAGIAVVNGRRVDVVSEGAFVNRDDPVEVVRVEGRRIVVKP”, for which the “soluble fraction (log2)” value was -0.106.

As to “HMEAGTEYVERAADYIRSHFQEDLTVSKLALYVGLNRSYLTTVFQNTLHVSPQQFLMRFRMERAAQLLD”, the “soluble fraction (log2)” value was -0.302.

Regarding “HMEAGTVTVTHAAVYIRSGPGVSYPIAGKAAKNDTYTVLQKDGDWFQIRLPQGNTGWIAGWLVETGT”, the “soluble fraction (log2)” value was -0.133.

For the sequence “HMEAISIYPNPTDNELHLSTSVQEVRIYNMYGIEVTRAANTDRLAVSHLPKGVYLVHADGAVLKMIK”, the “soluble fraction (log2)” value was -1.29.

Regarding “HMEAISSESIKKMIKSYVSGEDASKPLSDQQIADLLVKEGYMISRRTVAKYRDELGILSSSKRKR”, the “soluble fraction (log2)” value is not below 0.43.

For the sequence “HMEAKQMDAWIVSEAKRQGGKIEPAAAYELSRHTATDTSIASQEIAKLLMYVDFKRPVTREDVVELVSA”, the “soluble fraction (log2)” value is -0.0795.

As for “HMEALPELTDRQRQVYEFIEARIAEWGYPPTIREIGQHLGIKSTNGVADHLKALKRKGYLQQ”, the “soluble fraction (log2)” value is -0.804.

In the case of “HMEALTPREREVLTLMGQGRSNAEIATLLSIAPRTAKVHVQNILSKLGATNRTEAVSLAVRQGLIS”, the “soluble fraction (log2)” value was -0.18.

For “HMEASVNAPMPGKIVSVSVSEGQQVNAGDVLLILEAMKMQNEITADAAGTVKAINVNAGQSVKNGDSLVIL”, the “soluble fraction (log2)” value was -0.586.

With “HMEAVGLTPRQGDVLALLLQGKPNKLIARDLNLSVETVKDHVAAVLRALGVSTRTQAVLAVSQMQQQAAQ”, the “soluble fraction (log2)” value was -0.221.

Consider “HMEAVLTISPGMYSESVSAELVRLGIITNQKEFNSYLVNNGYAERIQTGDFKIKADMSYDEIARIITK”, for which the “soluble fraction (log2)” value was -0.489.

As for “HMEAYDTMEDRTTLAPGFAKLDKRERYILHLRFFEGLTQSQIAERVGISQMHVSRLIRRSLEKLREEIGD”, the “soluble fraction (log2)” value is -0.4.

“HMEAYSAEAVRFRIKAMIESETVDDVMSDDKIVERLLADGVDIARRTVAKYREAMNIPSSVKRRRKLKGM”: the “soluble fraction (log2)” value is -0.962.

On to “HMEDDRMLVWFFRKSIQNGAQSEAEGRPIFEGKDYVHIQQPGERDYIEREAHQGDIGRWPRHWQAYQEGR”, for which the “soluble fraction (log2)” value is -0.359.

Consider “HMEDEAVMQLPLSELKGLSPELLAILNGAGYEKLKDVLDLEREDIERIPGMTPERNEQLVAFLAELTE”, for which the “soluble fraction (log2)” value was -1.98.

Take “HMEDELFSVARAAFPEYASKIHMNYGSTVQSIARQSGVLTVSETKQLNENQQISYLEYSNGAVVLALA”: the “soluble fraction (log2)” value was -0.306.

As for “HMEDELVMERFDINELVKSVVNANELRATQKNLSITYDILDTPLYVWADEYKVEEVVTNYLS”, the “soluble fraction (log2)” value is -1.06.

For “HMEDIASESVKRVIRKIIDDEDKKSPLSDQAIVEILAKGEGIVIARRTVAKYREMMGILPSSKRKKH”, the “soluble fraction (log2)” value is 0.0959.

For “HMEDKIEESLEDNISELFAKTKDKYTLINDLYSKGYTVEELSRFSGLPSGEVRLVISLNSKN”, the “soluble fraction (log2)” value was -0.183.

On to “HMEDKPITKEQKQAMFALLREHFSGDEGNAVYTAVLEREGLAPGDKIMSSVYDRLIDGINEAIRQKLEAGA”, for which the “soluble fraction (log2)” value is -0.133.

Consider “HMEDNLMIVVQVNGKKRSEIKVSIDASEDQIKQTALAEPNVQKFVEGHTIRKMILVPSKLLNIVV”, for which the “soluble fraction (log2)” value is not below 0.43.

Regarding “HMEDPKLAQLTEQERKILDLIADGLTNRQIAEKMFLAEKTVKNYVSTILAKMGMSNRSEAAAYVARLEAG”, the “soluble fraction (log2)” value is -0.292.

As for “HMEDPPISQEQRQALFKMAHDHLGKDEGNKAILTLIQSHGLNSTTGMKVSTYNTIMEELVSTIQSLAA”, the “soluble fraction (log2)” value was found to be 0.0682.

Turning to “HMEDPVAQEARAAFEVGRLLAAATGPVTLAAIRRAIDLPEERLEEILRRLEESGAVRRARDGWLPG”, the “soluble fraction (log2)” value was -0.269.

Consider “HMEDVDLFTKAMAALPNRYRDILLLRYSHGYTVEEISDILSMKPENVKKTIQRARKKLGEILEAEG”, for which the “soluble fraction (log2)” value is -0.202.

For the sequence “HMEEDPVIAAQRFLNIFRQLHIFTAAKRKEFDELLLKQPASVKGMFASLPGGSVLQEYVNNLEQNAG”, the “soluble fraction (log2)” value was -0.0952.

Take “HMEEFIEHTVEKGEFLSAIIVAYNQHLKSKGFKSITTRDILNANPKLKPELIQVGQKIKIPRRKK”: the “soluble fraction (log2)” value is -0.0958.

As to “HMEEFLSFIADILEVDKNTLTLETSQDDVETWDSLMQLRLLGEIEAKYGVMIPMERISTIKKLNDFYQYIK”, the “soluble fraction (log2)” value is -1.76.

Consider “HMEEIIPIRFLRHRVKRRETIFGLTQKYNITEDQLKRYNTRLYSEALERKMVLQIPVFPEVDED”, for which the “soluble fraction (log2)” value was -0.667.

On to “HMEEITLQEQINFIKDMLLNKEKFHLTDVITKKSKIYVVSLFLALLELIRLEEINFRQTQNFSDIIISRI”, for which the “soluble fraction (log2)” value was -0.381.

In the case of “HMEELGKVRPELDGNEIAKVLGITPGPVLGRAYTYLLSVRLDEGPIGPDVARERLLAWWAEQPES”, the “soluble fraction (log2)” value was -2.01.

For “HMEELIEMNGVVMEILPDSRYRVTLDNGHKLIAYTGGKMKKNHIRILAGDKVTLELSPYDINNGRITFRHI”, the “soluble fraction (log2)” value is -0.146.

For “HMEELTDSELNNLYRELFIARSNASDGVGIIEQKTIKGITYRLSNDNNYLIKELGNKEYIYKNGVWEEYT”, the “soluble fraction (log2)” value was 0.0623.

In the case of “HMEENNIVIYITGAVKKEGIYEIKENSRISDAIEAAGGLLENANIKDINLAYIIEDGVKIYIPTNEEVNK”, the “soluble fraction (log2)” value is -1.35.

For the sequence “HMEEPFRIEKKGDIYYISGKTVERLVAMTDLDNDSAVKRLQRTLKRMGVEDALREHGINPGDTVVIGNYEF”, the “soluble fraction (log2)” value turned out to be 0.04.

As for “HMEEQIEVPVQINGKVRSKLTVAPETDEKQIEALALADPKVQQQLEGKRVLKVIVAQKRLVNIVA”, the “soluble fraction (log2)” value was -0.035.

As for “HMEESTYQWNNFVRDFYASRVSAQYTNKLKVAAILWHHVKNTPQSKIYHDNLVSKYAEEINYFK”, the “soluble fraction (log2)” value was -0.387.

With “HMEETEVPPVTGYEQSKASEVLTGKGLIPDIITVADEETAAGYVIRTDPASGEKVPSGTTVKVYVSSGP”, the “soluble fraction (log2)” value was -0.0585.

In the case of “HMEETGFYIKLQDQEVVIFHNDQVTPYEYTGIREEVLPESELEKLREGFFVEDEKELYSVLENLS”, the “soluble fraction (log2)” value is -0.412.

On to “HMEETLEELGKEYESAFTMYEKLWSYYKKQNYHQVNHKRSERYEILLGFVREYHPEKVEYYRELL”, for which the “soluble fraction (log2)” value was -0.482.

Consider “HMEETLRALAKKISEKVLKSGRSTTLEPMNPYERRIIHSAVSEIEGVSSKSVGEEPYRKVVISSDNP”, for which the “soluble fraction (log2)” value was -0.0148.

“HMEETLRELAVKISKQVIKTGRNSVLEPMNPYERRIIHAVISEIEGVSSKSVGEDPNRKVVIMSTNP”: the “soluble fraction (log2)” value was -1.07.

As to “HMEEYTVEFVKHKVKRKQTLYTISKLYNVSIDDIIKYNSQIEGFNLSRRMELNIPVKKTLIVKNE”, the “soluble fraction (log2)” value is -0.823.

Turning to “HMEFDTEFVLRQAMHAFMQYGYAKTSMQKLKEATHLHPGSIYAAYGNKKGLFLAATEQYQKDR”, the “soluble fraction (log2)” value is -0.101.

In the case of “HMEFEYFQLRDHLYNLIMHPDKEKLKKDPDYLKLMSMAFSLLEDQNVGKDILEIAIKSIENFK”, the “soluble fraction (log2)” value is -0.674.
